Amyloid nucleation score data for 143 substances are collected here from the supplement of paper PMC12042874.

± gives the uncertainty stated by the source.

The nature of the data set: amyloid nucleation score (Sup35N fusion, yeast selection) (log enrichment); library NNK2; higher = more nucleation; inactive = no reads after selection. In outline:
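Nucleation score: DiMSum log enrichment of output over input reads, centred on the mode score of non-aggregating sequences. Only sequences with at least 100 input reads were kept. Reads came from Illumina sequencing of plasmid inserts before and after 7 days of growth at 30°C without adenine and uracil, in psi-negative yeast expressing Sup35N fused to peptides of 20 random codons after 24 hours of induction with 100 μM copper sulfate.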
Substance CYWERWAS displayed an amyloid nucleation score of -1.84 ± 0.78. CYYFLFNS returned an amyloid nucleation score of 2.31 ± 0.062. In the case of DAAHSFYLSSGNESFVLELT, the amyloid nucleation score was -0.327 ± 0.63. For the substance DALDTRKLYN, the amyloid nucleation score entry is “inactive”.

As to DCPLYRWDTWRLSGSRT, the amyloid nucleation score entry is “inactive”.

For the substance DCSYYPSGIFMGLMFNLIAM, the amyloid nucleation score stood at 3.23 ± 0.064. With DCYSQPMLRVLDSVAHSVWF, the amyloid nucleation score came to 0.369 ± 0.43. DDFRGIAGIWWRG gave an amyloid nucleation score of 0.785 ± 0.51. Regarding DDIFNWFGVLGSNPLMVSVG, the amyloid nucleation score was 0.811 ± 0.33. Consider DDLGMTFRLG, for which the amyloid nucleation score is -0.337 ± 0.79. In turn, DDLLIRYC had an amyloid nucleation score of -0.022 ± 0.21. DDVSIL returned an amyloid nucleation score of 0.14 ± 1. Consider DEGSNIGHGSLDIHRDCALL, for which the amyloid nucleation score was -0.264 ± 0.23. Regarding DERGMCSLWSRCEYV, the amyloid nucleation score is -0.287 ± 0.29.

As for DERSLLDLHYCR, the amyloid nucleation score came out at 0.912 ± 0.43. Consider DESWETIFLYKCRGQNW, for which the amyloid nucleation score is -0.213 ± 1.1. DFALALVYTSMCLVVLYSML displayed an amyloid nucleation score of 4.4 ± 0.063. In turn, DFANFMGCMVNEAPRLHFAL yielded an amyloid nucleation score of 0.404 ± 0.38.

DFIITVL came in with an amyloid nucleation score of -1.05 ± 0.78. The result for DFIKMVV reads 3.73 ± 0.12; that for DFITVYECHCRIFGCVDREA, -0.352 ± 0.5; that for DFLSVYSYIKWWAA, -0.886 ± 0.49. DFQIFYFARLFRTV showed an amyloid nucleation score of -0.681 ± 0.79. On to DFSFVANCSDYLLNILFKGE, for which the amyloid nucleation score was -0.066 ± 0.74. The substance DGAGKYTSPSDYDDRYRLAV gave an amyloid nucleation score of 0.466 ± 0.17. Then DGCDNYDSRESKTLFMRMMW, with 1.11 ± 0.43; and DGIDTCGMCL, with -0.096 ± 0.63.

Consider DGNNVVIWLLWLSANMTGAG, for which the amyloid nucleation score amounted to 1.97 ± 0.13. The substance DGSSDRQGVKFFVDTSFLSR yielded an amyloid nucleation score of -0.593 ± 0.48. Take DGTNFDR: the amyloid nucleation score was -0.92 ± 0.37. Take DHAGWCSDRWVTDFDFAMGN: the amyloid nucleation score was 0.829 ± 0.5.

DICAIIVHWCDDLNVAYWYL came in with an amyloid nucleation score of 0.058 ± 1. The result for DIKAWLFVRSDIVDGGFADT reads -0.405 ± 0.29; that for DIMAAIYMDG, 0.715 ± 0.43; that for DINVCRVYEY, -0.011 ± 1.1.

With DIPTMVNGILYFTGYDPRVS, the amyloid nucleation score was -0.647 ± 1.1. For DIRIL, the amyloid nucleation score is -0.635 ± 0.44.

DISVRTMFVS: the amyloid nucleation score is -0.392 ± 0.48. For the substance DISVYSDFVLSFICADVHPS, the amyloid nucleation score amounted to 5.02 ± 0.04.

In the case of DISWYCGDHGSVVVECRNDL, the amyloid nucleation score was 2.63 ± 0.069.

DKKMVTTPTMPDK: the amyloid nucleation score stood at 0.977 ± 0.2. Regarding DKLLMVSIFFSDSMTSLS, the amyloid nucleation score entry is “inactive”. For DKWLWEL, the amyloid nucleation score stood at 0.575 ± 0.32. As for DLDRPYRDIFGTT, the amyloid nucleation score result is “inactive”.

The substance DLIMETYHLVSKCTFCGIEN showed an amyloid nucleation score of 6.473 ± 0.06. Substance DLKYLGLA registered an amyloid nucleation score of -0.535 ± 0.53. With DLVMVSVSADVHSSNS, the amyloid nucleation score worked out at 0.163 ± 0.5. Regarding DLWGTMKFNF, the amyloid nucleation score result was “inactive”. The result for DLWRLMEIFMRSMRWHGITT reads -0.456 ± 0.32; that for DLWTAWSRLHLDGG, 0.431 ± 0.23.

Take DLYPENFASMRFRVTTSLVF: the amyloid nucleation score entry was “inactive”. On to DLYSHSFNLHGYSMRVCYNE, for which the amyloid nucleation score turned out to be 0.147 ± 0.65. DLYWSMLLYVMSRVYE displayed an amyloid nucleation score of 0.249 ± 0.64.

DMFIVYSSLYRSFLIFESLH returned an amyloid nucleation score of -2.42 ± 0.75. In the case of DMGVFSLLDNK, the amyloid nucleation score amounted to 0.579 ± 0.66. Regarding DMLEKKE, the amyloid nucleation score was 5.921 ± 0.059. Substance DMQGRVVRR returned an amyloid nucleation score of -0.855 ± 0.61.

DMYDLASRSKRELF: the amyloid nucleation score entry was “inactive”. DNCIDSCCYPLVSRVLEL: the amyloid nucleation score came out at 0.354 ± 0.64.

Substance DNCSLPSGTMGSDNSGGRIQ came in with an amyloid nucleation score of -0.444 ± 0.32.

DNCVIRALQRRNVLVV: the amyloid nucleation score is -1.18 ± 0.39. As for DNGNWVCWLHVLGQGSHRKA, the amyloid nucleation score entry is “inactive”. The result for DNLVCCSCSHLIVWTLSVGA reads 9.548 ± 0.035. As for DNMSNYSGACLSNYL, the amyloid nucleation score was -0.292 ± 0.56. Then DNMWV, with 0.388 ± 0.54; and DNWVLYNCFTTSEKLSM, with 0.553 ± 0.19. Substance DRACPYLWVPLRLRGLDTII had an amyloid nucleation score of -1.32 ± 0.44.

Regarding DRAWQFPGDRAINGVRSAFF, the amyloid nucleation score is -1.04 ± 0.63. Regarding DRLGSRERDG, the amyloid nucleation score turned out to be 0.74 ± 0.2.

DRLVGVTLYSTVYSDYSSSG came in with an amyloid nucleation score of -0.768 ± 1.1. Consider DRNMRNLEIISVH, for which the amyloid nucleation score was -0.091 ± 0.23. For DRNYVQNSSTKMHYWASFLT, the amyloid nucleation score is 1.71 ± 0.17. For the substance DSDHIYNRERQVIFGG, the amyloid nucleation score was -0.607 ± 0.5. In the case of DSDSFYIMPMVHMPNNFHRD, the amyloid nucleation score is -1.41 ± 1.1. Consider DSFLTLTCGFRSNALYCWGV, for which the amyloid nucleation score was -0.663 ± 0.55. Take DSGLVLNAGIIGSV: the amyloid nucleation score is -1.11 ± 0.49. The result for DSGRA reads -0.351 ± 0.63; that for DSNDRWVW, -0.409 ± 0.76; that for DSNMRMIA, 0.448 ± 0.6. On to DSPRRTFIVQASHFTVYLTR, for which the amyloid nucleation score was determined as 8.111 ± 0.058.

DSRCDRAPDCGMNHCIYILC registered an amyloid nucleation score of 6.76 ± 0.082. Consider DSVFNMTIADECFG, for which the amyloid nucleation score was -1.06 ± 1.1. DTCYVTTYVWWKTLCPVGLV showed an amyloid nucleation score of 1.72 ± 0.31. Turning to DTGNPVVWKRTVNCLSQVLW, the amyloid nucleation score was 0.368 ± 0.62. Substance DTGRFVMLVVGR gave an amyloid nucleation score of 0.304 ± 0.54. DTQGIR: the amyloid nucleation score was -0.212 ± 0.65.

For DTSSYKTYDRLHQLYRNELR, the amyloid nucleation score was found to be 0.709 ± 0.23. Take DTSVMCFGTYTWLFELFFQW: the amyloid nucleation score is -0.334 ± 0.45. For the substance DTVNWCDSGVP, the amyloid nucleation score was -0.023 ± 0.65. Take DVDFRSMCEGTFSLNDQPNR: the amyloid nucleation score was -0.825 ± 0.78.

Consider DVEHPLYWPEDVLKASSETV, for which the amyloid nucleation score is 1.91 ± 0.12.

In turn, DVFVRSRGKGRFMGSRDNWA came in with an amyloid nucleation score of 0.76 ± 0.4. Substance DVHRWKIWQASG had an amyloid nucleation score of 0.901 ± 0.26. The result for DVLALFYSYCALN reads 0.049 ± 1.1; that for DVLCS, 0.626 ± 0.57; that for DVLIRKWIIWDASNLQWMAI, 0.144 ± 0.36.

As to DVSSPVPGRGQCCVDGCWEF, the amyloid nucleation score is 6.153 ± 0.059.

As for DVVFFVSYW, the amyloid nucleation score was 3.86 ± 0.098. As for DVVILMF, the amyloid nucleation score was 0.639 ± 0.5. Turning to DWCPTCIWRICSHVTQSWSS, the amyloid nucleation score was 6.325 ± 0.055.

Take DWQCRGLQYQWFGGVWDANV: the amyloid nucleation score is -0.882 ± 0.64.

The substance EAHGSWL showed an amyloid nucleation score of 0.764 ± 0.38. EALKVWERLCRLCSFWSYRK: the amyloid nucleation score was found to be 7.871 ± 0.039. Turning to EAYLDCYRLLFWFLFM, the amyloid nucleation score entry is “inactive”.

The substance ECSGEHASVQVSTGLGTDVQ displayed an amyloid nucleation score of 2.8 ± 0.065. For EEMYRSIARNVVVLNRYCES, the amyloid nucleation score is -0.468 ± 0.26. Turning to EEYCSFKLVHMGRGPAGHSI, the amyloid nucleation score was 2.58 ± 0.11. On to EFCMEDQSMSLLWDYY, for which the amyloid nucleation score is -0.183 ± 1. Then EFFFRLMTDPTN, with -0.376 ± 0.63.

Regarding EFFISVSLNWCKTDCYTDPW, the amyloid nucleation score was -0.407 ± 0.2. Then EFGDQLSDYNWIVCMLGTYI, with -0.904 ± 1.1; and EFIAISLSFVPLYRVVSGSG, with -0.674 ± 0.79; and EFLLNMAYSSGGSWTEVFRV, with -0.005 ± 0.63. The result for EFMYGKTARGWFLALTARIF reads “inactive”; that for EFNCYGWKRRKRRCWGGKCR, 0.726 ± 0.41.

The substance EFRGWNI registered an amyloid nucleation score of -0.587 ± 0.79. The result for EFWPKELIRSDDSASFNGMS reads 0.007 ± 1.1. EFYFSVRPVKLCFGLNVTNN returned an amyloid nucleation score of -0.146 ± 1.

Regarding EFYPTHDFVQRDRRVTRLRI, the amyloid nucleation score was 0.524 ± 0.81. As to EGFMSFPTN, the amyloid nucleation score entry is “inactive”. In turn, EGNYFSGIS returned an amyloid nucleation score of -1.2 ± 0.48. Substance EGVVSVRVFKYTGSYG showed an amyloid nucleation score of 0.599 ± 0.8. In turn, EGWTWGGRLNKAQILTECVL displayed an amyloid nucleation score of 1.49 ± 0.38. As to EIDQSYVNTSSQQTSIYV, the amyloid nucleation score entry is “inactive”. EIHCPMITMISVGRDSMKFN gave an amyloid nucleation score of 0.996 ± 0.41.

For the substance EINGY, the amyloid nucleation score was -0.418 ± 1. EKLRNQFKP: the amyloid nucleation score is -0.569 ± 1.1. The result for ELQGYSNCGLEIGGTCHRGY reads -0.302 ± 0.61; that for ELRPIHIFKFFT, -0.253 ± 0.4; that for ELSLTCNGDQLIGMKGGADK, 0.008 ± 0.38. Consider EMDNGDSGTVW, for which the amyloid nucleation score is -0.186 ± 0.76. EMNFKALLKGVNGFVWDGVF came in with an amyloid nucleation score of 1.43 ± 0.21.

As for ENFRGTFKIRRRCCL, the amyloid nucleation score is -0.251 ± 0.76. As to ENGIICR, the amyloid nucleation score came out at 0.088 ± 0.49. In turn, ENHQCGWGLPLCTVVSR came in with an amyloid nucleation score of 6 ± 0.077. Then ENKPTRDLYSTTR, with -1.19 ± 0.54. Take ENVCCGVGSVYKSMLAAPPW: the amyloid nucleation score was 10.23 ± 0.056. Consider EPGMKSRSNYMHGTKGEHHR, for which the amyloid nucleation score is -0.131 ± 0.45. The result for EQHIDSAMENFSDHDIVMLG reads 4.76 ± 0.064; that for ERHNAELRHPAQYLEFTTLG, 1.38 ± 0.37; that for ERSCSDIAGYPRPHGVQRNA, 3.01 ± 0.081. With ESDSWNVVITDM, the amyloid nucleation score is -0.371 ± 0.64. Regarding ESFVRVLSFFCVSWYGSMVR, the amyloid nucleation score was 1.75 ± 0.24.
